Tests used:
[1] = target: T1, Recombinant soluble human OX40L fused to a Histidine tag (human, UniProt P23510 51-183); test: SPR, Biacore 3000; antibody captured via anti-Fcγ on CM5, hOX40L-His as analyte, 1:1 Langmuir fit; native hOX40L-His as analyte in SPR, antibody captured via Anti-hFcg, HBS-P pH 7.4, 25 C
T1 construct: extracellular domain; there it was reduced and LDS-denatured; also called hOX40L-His; hOx40L-His; not shown: Histidine tag
T1 sequence (looked up): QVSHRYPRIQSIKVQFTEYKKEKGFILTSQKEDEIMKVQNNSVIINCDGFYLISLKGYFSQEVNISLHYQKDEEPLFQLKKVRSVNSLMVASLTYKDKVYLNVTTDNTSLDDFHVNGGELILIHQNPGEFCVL
Protocol: (§1) Instrument: Biacore 3000, running and reaction buffer: HBS-P (10 mM HEPES, 150 mM NaCl, 0.005% Tween 20, ph 7.4), 25° C. Injection of analyte was performed at 7 concentrations between 0.78 nM and 100 nM for 3 minutes and washed with HBS-P for 5 minutes. Regeneration of the surface (carboxymethylated dextrane surface, CM) was performed by two injections of 10 mM Glycine pH 2.0 for 1 min each. The chip, assay format and sequence of injections and kinetic data correspond to the description in the following table. Kinetic data were calculated by fitting kinetic data to a 1:1 Langmuir binding model.

[2] = target: T1, Recombinant soluble human OX40L fused …; test: SPR competition; hOX40L-His (10 nM) preincubated with antibody (0.78-100 nM), injected over immobilized OX40-hFc; native hOX40L-His (10 nM) preincubated with the antibody in solution, competition for immobilized OX40-hFc
Protocol: Instrument: Biacore 3000, running and reaction buffer: HBS-P (10 mM HEPES, 150 mM NaCl, 0.005% Tween 20, ph 7.4), 25° C. Prior to injection the analyte (10 nM) and competitor (eight concentrations between 0.78 nM and 100 nM) were preincubated for at least 20 min at 22° C. Injection of analyte+/−competitor was performed for 3 minutes and washed with HBS-P for three minutes. Regeneration of the surface was performed by two injections of 10 mM Glycine pH 2.0 for 1 min each. The chip, assay format and sequence of injections and kinetic data correspond to the description in the following table 3.

[3] = target: T2, human OX40L expressed on cells (K562-hOX40L cells; HUVEC) (human, UniProt P23510 1-183); test: cell-based or functional assay
T2 sequence (looked up): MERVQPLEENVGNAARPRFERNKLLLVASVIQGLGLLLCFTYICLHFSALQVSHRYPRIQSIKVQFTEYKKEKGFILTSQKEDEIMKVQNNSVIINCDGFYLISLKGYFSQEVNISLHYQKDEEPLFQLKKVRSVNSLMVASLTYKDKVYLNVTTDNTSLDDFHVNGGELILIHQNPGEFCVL

[4] = target: T1, Recombinant soluble human OX40L fused …; test: SPR, Biacore 3000; antibody captured via anti-Fcγ on CM5, hOX40L-His as analyte, 1:1 Langmuir fit
Protocol: as §1

Kd [1] [nM] | koff [1] [s⁻¹] | kon [1] [M⁻¹ s⁻¹] | IC50 [2] [nM] | IC50, IL-2 release of PHA-activated PBL co-stimulated with K562_OX40L cells [3] [nM] | Kd [4] [nM] | koff [4] [s⁻¹] | kon [4] [M⁻¹ s⁻¹] | Binder
< 0.015 | < 1e-06 | 68400 | 3 | 10 | – | – | – | Human anti-human OX40L monoclonal antibody LC.005 (antibody, IgG1, V domains shown, also called LC2010-005; hu-Mab<hOX40L>LC.005) VH: QVQLVESGGGVVQPGRSLRLSCAASGFTFSNFGMHWVRQAPGKGLEWVAAIWYDGHDKYYSYYVKGRFTISRDNSKNTLFLQMNSLRAEDTAVYYCARDSSSWYRYFDYWGQGTLVTVSS VL: not shown
– | – | – | – | – | 0.399 | 2.5e-05 | 62500 | Human anti-human OX40L monoclonal antibody LC.010 (antibody, IgG1, V domains shown, also called LC2010-010; hu-Mab<hOX40L>LC.010) VH: QVQLVESGGGVVQPGRSLRLSCAASGFTFSNFGMHWVRQAPGKGLEWVAAIWYDGHDKYYAYYVKGRFTISRDNSKNTLFLQMNSLRAEDTAVYYCARDSSSWYRYFDYWGQGTLVTVSS VL: not shown
– | – | – | – | – | < 0.014 | 2.09e-07 | 70100 | Human anti-human OX40L monoclonal antibody LC.033 (antibody, V domains shown, also called LC2010-033; hu-Mab<hOX40L>LC.033) VH: QKQLVEFGGGVVQPGRSLRLSCAASGFTFSNYGMHWVRQAPGKGLEWVAVIWNDGSNKYYVDSVKGRFIISRDNSKNTLYLQMNSLRAEDTAVYYCARDRMGIYYYGMDVWGQGTTVTVSS VL: EIVLTQSPATLSLSPGERATLSCRASQGVSRYLAWYQQKPGQAPRLLIYDASNRATGIPARVSGSGPGTDFTLTISSLEPEDFAVDYCQQRSNWQYTFGQGTKLEI

Source: patent US7501496 (ROCHE PALO ALTO, dated 2009)
